{
  "source": "paper PMC8064889",
  "about": "(2021)",
  "binders": {"B1": {"name": "47D1 Fab (Fab, V domains shown)", "VH": "QVQLVQSGAEVKKPGSSVRVSCKASGGTFSTYPISWVRQAPGQGLEWMGGIIPIFGTAKSAQKFQGRVTITADEFTSTAYMEMSSLRSEDTAMYYCAREGRRYGSGWYISTGYFDYWGQGTLVTVSS", "VL": "QLVLTQPASVSGSPGQSIIVSCTGTSSDVGGYKFVSWYQQHPGKAPRVMIYDVSNRPSGVSNRFSGSKSGNTASLTISGLQADDEADYYCSSYTNSSTVVFGGGTKVTVL"}},
  "biological_target": "SARS-CoV-2 RBD, His6-tagged, for biolayer interferometry (SARS-CoV-2, UniProt P0DTC2 319-541)",
  "assay": "BLI",
  "data": [
    {"binder": "B1", "values": [
      {"measurement": "Kd", "value": 2, "unit": "nM"}
    ]}
  ]
}
